Reference: the supplement of paper PMC10567573

B1: PI4K2A (parent)
chain: FVKDPQGRIIAVFKPKNEEPYGHL

Variants of: B1
Experiment: protein stability index of a GFP-peptide fusion (GPS, HEK-293T) (PSI 1-6); higher = more stable
Conditions: c terminus: a fixed tail appended
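Note: lentivirally expressed fusions sorted by FACS into six bins by GFP to DsRed ratio, PSI derived from sequencing read proportions per bin multiplied by bin number.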

**Q.** With FVKDPQGRIIAVFKPYNEEPYGHL [K16Y] as the variant, how does the protein stability index read?
**A.** 2.44

**Q.** With FVKDPQGRIIAVFKPPNEEPYGHL [K16P] as the variant, how does the protein stability index read?
**A.** 1.7

**Q.** Which protein stability index does the source give for FVKDPQGRIIAVFKPANEEPYGHL [K16A] here?
**A.** 1.91

**Q.** Which protein stability index does the source give for FVKDPQGRIIAVFKPRNEEPYGHL [K16R] here?
**A.** 1.77

**Q.** Which protein stability index does the source give for FVKDPQGRIIAVFKPHNEEPYGHL [K16H] here?
**A.** 1.97

**Q.** With FVKDPQGRIIAVFKPNNEEPYGHL [K16N] as the variant, how does the protein stability index read?
**A.** 1.68

**Q.** With FVKDPQGRIIAVFKPSNEEPYGHL [K16S] as the variant, how does the protein stability index read?
**A.** 1.48

**Q.** Which protein stability index does the source give for FVKDPQGRIIAVFKPTNEEPYGHL [K16T] here?
**A.** 1.42

**Q.** With FVKDPQGRIIAVFKPMNEEPYGHL [K16M] as the variant, how does the protein stability index read?
**A.** 1.98

**Q.** For FVKDPQGRIIAVFKPVNEEPYGHL [K16V], which protein stability index is on record?
**A.** 2.79

**Q.** For FVKDPQGRIIAVFKPCNEEPYGHL [K16C], which protein stability index is on record?
**A.** 1.63

**Q.** For FVKDPQGRIIAVFKPINEEPYGHL [K16I], which protein stability index is on record?
**A.** 2.31

**Q.** Which protein stability index does the source give for FVKDPQGRIIAVFKPFNEEPYGHL [K16F] here?
**A.** 2.44

**Q.** For FVKDPQGRIIAVFKPENEEPYGHL [K16E], which protein stability index is on record?
**A.** 2.3

**Q.** For FVKDPQGRIIAVFKPWNEEPYGHL [K16W], which protein stability index is on record?
**A.** 2.23

**Q.** Which protein stability index does the source give for FVKDPQGRIIAVFKPGNEEPYGHL [K16G] here?
**A.** 1.46

**Q.** With FVKDPQGRIIAVFKPLNEEPYGHL [K16L] as the variant, how does the protein stability index read?
**A.** 1.66

**Q.** With FVKDPQGRIIAVFKPDNEEPYGHL [K16D] as the variant, how does the protein stability index read?
**A.** 2.22

**Q.** Which protein stability index does the source give for FVKDPQGRIIAVFKPQNEEPYGHL [K16Q] here?
**A.** 2.23

**Q.** For FVKDPQGRIIAYFKPKNEEPYGHL [V12Y], which protein stability index is on record?
**A.** 1.93

**Q.** Which protein stability index does the source give for FVKDPQGRIIASFKPKNEEPYGHL [V12S] here?
**A.** 2.72

**Q.** Which protein stability index does the source give for FVKDPQGRIIADFKPKNEEPYGHL [V12D] here?
**A.** 1.56

**Q.** For FVKDPQGRIIAMFKPKNEEPYGHL [V12M], which protein stability index is on record?
**A.** 2

**Q.** Which protein stability index does the source give for FVKDPQGRIIACFKPKNEEPYGHL [V12C] here?
**A.** 2.04

**Q.** Which protein stability index does the source give for FVKDPQGRIIAKFKPKNEEPYGHL [V12K] here?
**A.** 1.38

**Q.** For FVKDPQGRIIAHFKPKNEEPYGHL [V12H], which protein stability index is on record?
**A.** 2.9

**Q.** With FVKDPQGRIIAQFKPKNEEPYGHL [V12Q] as the variant, how does the protein stability index read?
**A.** 2.5

**Q.** With FVKDPQGRIIAWFKPKNEEPYGHL [V12W] as the variant, how does the protein stability index read?
**A.** 1.45

**Q.** With FVKDPQGRIIAIFKPKNEEPYGHL [V12I] as the variant, how does the protein stability index read?
**A.** 1.85

**Q.** For FVKDPQGRIIALFKPKNEEPYGHL [V12L], which protein stability index is on record?
**A.** 2.07

**Q.** Which protein stability index does the source give for FVKDPQGRIIAFFKPKNEEPYGHL [V12F] here?
**A.** 2.84

**Q.** For FVKDPQGRIIAPFKPKNEEPYGHL [V12P], which protein stability index is on record?
**A.** 2.46

**Q.** Which protein stability index does the source give for FVKDPQGRIIARFKPKNEEPYGHL [V12R] here?
**A.** 1.96

**Q.** Which protein stability index does the source give for FVKDPQGRIIAGFKPKNEEPYGHL [V12G] here?
**A.** 2.44

**Q.** With FVKDPQGRIIAEFKPKNEEPYGHL [V12E] as the variant, how does the protein stability index read?
**A.** 1.74

**Q.** Which protein stability index does the source give for FVKDPQGRIIAAFKPKNEEPYGHL [V12A] here?
**A.** 3.17

**Q.** For FVKDPQGRIIATFKPKNEEPYGHL [V12T], which protein stability index is on record?
**A.** 2.54

**Q.** For FVKDPQGRIIAVFKPKNCEPYGHL [E18C], which protein stability index is on record?
**A.** 2.02

**Q.** Which protein stability index does the source give for FVKDPQGRIIAVFKPKNHEPYGHL [E18H] here?
**A.** 1.62

**Q.** For FVKDPQGRIIAVFKPKNGEPYGHL [E18G], which protein stability index is on record?
**A.** 3.17

**Q.** With FVKDPQGRIIAVFKPKNAEPYGHL [E18A] as the variant, how does the protein stability index read?
**A.** 2.39

**Q.** With FVKDPQGRIIAVFKPKNFEPYGHL [E18F] as the variant, how does the protein stability index read?
**A.** 1.96

**Q.** With FVKDPQGRIIAVFKPKNDEPYGHL [E18D] as the variant, how does the protein stability index read?
**A.** 2.16

**Q.** With FVKDPQGRIPAVFKPKNEEPYGHL [I10P] as the variant, how does the protein stability index read?
**A.** 2.56

**Q.** Which protein stability index does the source give for FVKDPQGRIQAVFKPKNEEPYGHL [I10Q] here?
**A.** 1.74

**Q.** Which protein stability index does the source give for FVKDPQGRIAAVFKPKNEEPYGHL [I10A] here?
**A.** 2.15

**Q.** Which protein stability index does the source give for FVKDPQGRIMAVFKPKNEEPYGHL [I10M] here?
**A.** 2.51

**Q.** Which protein stability index does the source give for FVKDPQGRIGAVFKPKNEEPYGHL [I10G] here?
**A.** 2.09

**Q.** Which protein stability index does the source give for FVKDPQGRILAVFKPKNEEPYGHL [I10L] here?
**A.** 2.99

**Q.** For FVKDPQGRIVAVFKPKNEEPYGHL [I10V], which protein stability index is on record?
**A.** 1.88

**Q.** With FVKDPQGRIHAVFKPKNEEPYGHL [I10H] as the variant, how does the protein stability index read?
**A.** 2.33

**Q.** Which protein stability index does the source give for FVKDPQGRIRAVFKPKNEEPYGHL [I10R] here?
**A.** 2.85

**Q.** With FVKDPQGRISAVFKPKNEEPYGHL [I10S] as the variant, how does the protein stability index read?
**A.** 1.97

**Q.** Which protein stability index does the source give for FVKDPQGRIFAVFKPKNEEPYGHL [I10F] here?
**A.** 2.79

**Q.** Which protein stability index does the source give for FVKDPQGRIYAVFKPKNEEPYGHL [I10Y] here?
**A.** 2.28

**Q.** Which protein stability index does the source give for FVKDPQGRITAVFKPKNEEPYGHL [I10T] here?
**A.** 2.09

**Q.** With FVKDPQGRIDAVFKPKNEEPYGHL [I10D] as the variant, how does the protein stability index read?
**A.** 1.97

**Q.** Which protein stability index does the source give for FVKDPQGRIWAVFKPKNEEPYGHL [I10W] here?
**A.** 2.88

**Q.** Which protein stability index does the source give for FVKDPQGRINAVFKPKNEEPYGHL [I10N] here?
**A.** 2.35

**Q.** With FVKDPQGRICAVFKPKNEEPYGHL [I10C] as the variant, how does the protein stability index read?
**A.** 2.23

**Q.** Which protein stability index does the source give for FVKDPQWRIIAVFKPKNEEPYGHL [G7W] here?
**A.** 3.45

**Q.** For FVKDPQVRIIAVFKPKNEEPYGHL [G7V], which protein stability index is on record?
**A.** 1.73

**Q.** For FVKDPQTRIIAVFKPKNEEPYGHL [G7T], which protein stability index is on record?
**A.** 1.45

**Q.** With FVKDPQQRIIAVFKPKNEEPYGHL [G7Q] as the variant, how does the protein stability index read?
**A.** 2.07

**Q.** With FVKDPQRRIIAVFKPKNEEPYGHL [G7R] as the variant, how does the protein stability index read?
**A.** 2.08

**Q.** For FVKDPQGRWIAVFKPKNEEPYGHL [I9W], which protein stability index is on record?
**A.** 2.5

**Q.** Which protein stability index does the source give for FVKDPQGRLIAVFKPKNEEPYGHL [I9L] here?
**A.** 2.06

**Q.** With FVKDPQGRKIAVFKPKNEEPYGHL [I9K] as the variant, how does the protein stability index read?
**A.** 2.63

**Q.** Which protein stability index does the source give for FVKDPQGRCIAVFKPKNEEPYGHL [I9C] here?
**A.** 1.85

**Q.** With FVKDPQGREIAVFKPKNEEPYGHL [I9E] as the variant, how does the protein stability index read?
**A.** 2.17

**Q.** Which protein stability index does the source give for FVKDPQGRNIAVFKPKNEEPYGHL [I9N] here?
**A.** 4.29

**Q.** For FVKDPQGRVIAVFKPKNEEPYGHL [I9V], which protein stability index is on record?
**A.** 2.56

**Q.** For FVKDPQGRQIAVFKPKNEEPYGHL [I9Q], which protein stability index is on record?
**A.** 1.67

**Q.** For FVKDPQGRRIAVFKPKNEEPYGHL [I9R], which protein stability index is on record?
**A.** 1.59

**Q.** Which protein stability index does the source give for FVKDPQGRYIAVFKPKNEEPYGHL [I9Y] here?
**A.** 1.9

**Q.** For FVKDPQGRDIAVFKPKNEEPYGHL [I9D], which protein stability index is on record?
**A.** 3.44

**Q.** Which protein stability index does the source give for FVKDPQGRFIAVFKPKNEEPYGHL [I9F] here?
**A.** 2.01

**Q.** With FVKDPQGRTIAVFKPKNEEPYGHL [I9T] as the variant, how does the protein stability index read?
**A.** 2.34

**Q.** For FVKDPQGRSIAVFKPKNEEPYGHL [I9S], which protein stability index is on record?
**A.** 2.61

**Q.** For FVKDPQGEIIAVFKPKNEEPYGHL [R8E], which protein stability index is on record?
**A.** 1.98

**Q.** With FVKDPQGTIIAVFKPKNEEPYGHL [R8T] as the variant, how does the protein stability index read?
**A.** 3.95

**Q.** Which protein stability index does the source give for FVKDPQGHIIAVFKPKNEEPYGHL [R8H] here?
**A.** 1.93

**Q.** For FVKDPQGMIIAVFKPKNEEPYGHL [R8M], which protein stability index is on record?
**A.** 2.87

**Q.** Which protein stability index does the source give for FVKDPQGKIIAVFKPKNEEPYGHL [R8K] here?
**A.** 1.61

**Q.** For FVKDPQGYIIAVFKPKNEEPYGHL [R8Y], which protein stability index is on record?
**A.** 1.6

**Q.** Which protein stability index does the source give for FVKDPQGSIIAVFKPKNEEPYGHL [R8S] here?
**A.** 3.87

**Q.** With FVKDPQGLIIAVFKPKNEEPYGHL [R8L] as the variant, how does the protein stability index read?
**A.** 1.81

**Q.** Which protein stability index does the source give for FVKDPQGGIIAVFKPKNEEPYGHL [R8G] here?
**A.** 2.47

**Q.** For FVKDPQGWIIAVFKPKNEEPYGHL [R8W], which protein stability index is on record?
**A.** 1.14

**Q.** With FVKDPQGCIIAVFKPKNEEPYGHL [R8C] as the variant, how does the protein stability index read?
**A.** 2.37

**Q.** With FVKDPQGFIIAVFKPKNEEPYGHL [R8F] as the variant, how does the protein stability index read?
**A.** 2.27

**Q.** With FVKDPQGVIIAVFKPKNEEPYGHL [R8V] as the variant, how does the protein stability index read?
**A.** 1.72

**Q.** For FVKDPQGIIIAVFKPKNEEPYGHL [R8I], which protein stability index is on record?
**A.** 2.72

**Q.** For FVKDPQGQIIAVFKPKNEEPYGHL [R8Q], which protein stability index is on record?
**A.** 1.92
